The values that follow come from publication PMC11429203 (Biomimetics, 2024).

Broadly, the Kd is the free concentration of one partner at which half of the binding sites on the other are occupied at equilibrium, for simple one-to-one binding. Read a high Kd as a looser complex.

This assay has as its target T1, human FGFR2 protein (His-tag) residue 403-822 (human, UniProt P21802-3 403-822).
T1 construct: fibroblast growth factor receptor 2 (FGFR2), human, residues 403-822 (cytoplasmic part with the kinase domain); docking used residues 461-763 of PDB 7OZY, another construct; also called FGFR2 kinase domain; FGFR2 protein kinase domain; source: bought: Thermo Fisher Scientific
Briefly: SPR; FGFR2 (10 µg/mL) coupled through NHS/EDAC to 11-mercaptoundecanoic acid on gold chips; peptides flowed at 50 nM, 100 nM, 1 µM, 50 µM and 100 µM in 1X PBS, 30 µL/min, 2000 s; KD by non-linear regression, mean of three runs. The settings on record: both partners purified. Background: Surface plasmon resonance follows binding to a sensor surface in real time, without labels.

T1 sequence (P21802 402-821): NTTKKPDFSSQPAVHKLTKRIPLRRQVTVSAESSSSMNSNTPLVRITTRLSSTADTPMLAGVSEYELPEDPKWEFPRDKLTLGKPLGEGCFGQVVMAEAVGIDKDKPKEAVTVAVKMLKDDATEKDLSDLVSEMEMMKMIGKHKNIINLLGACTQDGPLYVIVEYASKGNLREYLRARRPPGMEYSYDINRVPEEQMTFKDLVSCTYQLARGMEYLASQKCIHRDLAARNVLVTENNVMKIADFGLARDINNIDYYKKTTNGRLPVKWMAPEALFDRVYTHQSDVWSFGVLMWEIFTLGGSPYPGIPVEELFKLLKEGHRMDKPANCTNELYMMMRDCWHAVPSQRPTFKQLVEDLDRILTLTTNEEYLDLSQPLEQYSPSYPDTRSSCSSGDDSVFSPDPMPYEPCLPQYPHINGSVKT

B1: ACSAGLPHVLTPEAGATGASCA (Trimer-pep) (peptide)
peptide: ACSAGLPHVLTPEAGATGASCA
notes: Newly designed fusion peptide of 22 residues; also called fusion trimer peptide; source: synthetic peptide, custom-ordered from GenScript
B1 displayed a Kd of 7.53 µM.

B2: ACSAG (A-pep) (peptide)
peptide: ACSAG
notes: Unconjugated peptide (no DOX, no fluorescein) in the SPR and antibody-staining experiments; also called ACSAG peptide; source: synthetic peptide, custom-ordered from GenScript
In turn, B2 yielded a Kd of 14.1 µM.
